Results published in publication PMC9482650, “Quantitative fragmentomics allow affinity mapping of interactomes” (Nature Communications, 2022).
Each block holds one binder with its values, some of them ahead of it.

Columns and labels:
Test in all cases: holdup assay
Parameters in all cases: key: below the threshold = too weak to quantify, mostly under pKd 3.1 to 4
APBA2_2, Q99767 = target: T1, APBA2_2, Q99767
T1 sequence (Q99767 654-744, limits assumed, looked up): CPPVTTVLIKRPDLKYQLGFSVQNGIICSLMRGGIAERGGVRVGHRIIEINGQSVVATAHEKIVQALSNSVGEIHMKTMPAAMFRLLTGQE

ARHGEF12, Q9NZN5-2 = target: ARHGEF12, Q9NZN5-2
ARHGEF12, Q9NZN5-2, sequence (Q9NZN5 other isoform, or with tags, fused parts or gaps): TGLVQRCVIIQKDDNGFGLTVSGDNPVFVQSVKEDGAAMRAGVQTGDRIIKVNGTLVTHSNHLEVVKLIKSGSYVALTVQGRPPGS

DLG1_2, Q12959 = target: DLG1_2, Q12959
DLG1_2, Q12959, sequence (Q12959 314-412): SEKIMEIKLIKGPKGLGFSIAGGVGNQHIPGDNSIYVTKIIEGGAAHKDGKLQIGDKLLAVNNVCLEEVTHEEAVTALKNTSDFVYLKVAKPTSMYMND

DLG1_3, Q12959 = target: DLG1_3, Q12959
DLG1_3, Q12959, sequence (Q12959 457-571): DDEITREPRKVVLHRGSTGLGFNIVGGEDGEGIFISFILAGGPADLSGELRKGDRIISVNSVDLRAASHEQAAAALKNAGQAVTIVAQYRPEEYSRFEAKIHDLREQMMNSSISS

DLG4_1, P78352 = target: DLG4_1, P78352
DLG4_1, P78352, sequence (P78352 62-152): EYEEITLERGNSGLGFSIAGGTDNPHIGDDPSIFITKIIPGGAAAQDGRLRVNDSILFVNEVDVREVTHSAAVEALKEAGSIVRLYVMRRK

DLG4_2, P78352 = target: DLG4_2, P78352
DLG4_2, P78352, sequence (P78352 155-259): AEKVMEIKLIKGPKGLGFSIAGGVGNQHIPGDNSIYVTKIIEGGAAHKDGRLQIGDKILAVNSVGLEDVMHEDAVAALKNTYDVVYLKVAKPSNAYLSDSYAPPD

FRMPD2_1, Q68DX3 = target: FRMPD2_1, Q68DX3
FRMPD2_1, Q68DX3, sequence (Q68DX3 770-861): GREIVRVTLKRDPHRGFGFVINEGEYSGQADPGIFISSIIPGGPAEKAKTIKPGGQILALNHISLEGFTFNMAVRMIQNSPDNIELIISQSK

GOPC, Q9HD26 = target: GOPC, Q9HD26
GORASP1, Q9BQQ3 = target: GORASP1, Q9BQQ3
GORASP1, Q9BQQ3, sequence (Q9BQQ3 1-208): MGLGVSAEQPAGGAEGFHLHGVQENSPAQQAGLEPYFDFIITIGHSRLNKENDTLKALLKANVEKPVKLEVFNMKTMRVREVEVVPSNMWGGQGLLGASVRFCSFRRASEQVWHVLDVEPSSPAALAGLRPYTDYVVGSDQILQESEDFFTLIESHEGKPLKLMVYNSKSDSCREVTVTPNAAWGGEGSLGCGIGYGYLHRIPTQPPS

GRASP, Q7Z6J2 = target: GRASP, Q7Z6J2
GRASP, Q7Z6J2, sequence (Q7Z6J2 96-193): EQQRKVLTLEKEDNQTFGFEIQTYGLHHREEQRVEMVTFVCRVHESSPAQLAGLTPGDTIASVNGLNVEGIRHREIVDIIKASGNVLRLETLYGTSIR

GRID2IP_1, A4D2P6 = target: GRID2IP_1, A4D2P6
GRID2IP_1, A4D2P6, sequence (A4D2P6 1-87): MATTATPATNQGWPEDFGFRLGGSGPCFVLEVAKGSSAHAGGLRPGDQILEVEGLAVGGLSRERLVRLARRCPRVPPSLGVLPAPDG

GRIP1_5, Q9Y3R0 = target: T2, GRIP1_5, Q9Y3R0
T2 sequence (Q9Y3R0 568-668, limits assumed, looked up): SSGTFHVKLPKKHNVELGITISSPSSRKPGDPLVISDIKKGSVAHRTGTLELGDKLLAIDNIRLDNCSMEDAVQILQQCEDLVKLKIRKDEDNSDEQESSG

GRIP2_4, Q9C0E4 = target: GRIP2_4, Q9C0E4
GRIP2_4, Q9C0E4, sequence (Q9C0E4 446-548): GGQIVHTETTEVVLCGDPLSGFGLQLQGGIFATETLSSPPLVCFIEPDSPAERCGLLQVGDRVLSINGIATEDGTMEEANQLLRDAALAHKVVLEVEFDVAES

GRIP2_6, Q9C0E4 = target: GRIP2_6, Q9C0E4
GRIP2_6, Q9C0E4, sequence (Q9C0E4 648-740): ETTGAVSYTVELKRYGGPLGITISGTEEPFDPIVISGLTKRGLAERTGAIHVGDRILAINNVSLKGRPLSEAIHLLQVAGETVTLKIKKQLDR

HTRA1, Q92743 = target: HTRA1, Q92743
HTRA1, Q92743, sequence (Q92743 360-477): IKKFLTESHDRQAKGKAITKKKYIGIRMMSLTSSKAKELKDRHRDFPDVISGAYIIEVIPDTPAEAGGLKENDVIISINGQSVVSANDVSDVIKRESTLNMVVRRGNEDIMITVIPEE

HTRA2, O43464 = target: HTRA2, O43464
HTRA2, O43464, sequence (O43464 355-458): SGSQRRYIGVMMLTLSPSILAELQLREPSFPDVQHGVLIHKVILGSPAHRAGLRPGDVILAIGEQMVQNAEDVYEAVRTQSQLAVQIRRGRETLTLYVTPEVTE

LAP2, Q96RT1 = target: LAP2, Q96RT1
LAP2, Q96RT1, sequence (Q96RT1 other isoform, or with tags, fused parts or gaps): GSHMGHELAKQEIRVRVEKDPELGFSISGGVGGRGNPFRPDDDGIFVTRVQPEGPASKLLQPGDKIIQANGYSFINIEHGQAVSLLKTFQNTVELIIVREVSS

LIN7B, Q9HAP6 = target: T3, LIN7B, Q9HAP6
T3 sequence (Q9HAP6 88-185, limits assumed, looked up): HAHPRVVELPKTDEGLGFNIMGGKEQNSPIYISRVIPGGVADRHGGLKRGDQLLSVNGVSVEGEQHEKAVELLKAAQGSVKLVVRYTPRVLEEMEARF

MAGI1_2, Q96QZ7 = target: MAGI1_2, Q96QZ7
MAGI1_2, Q96QZ7, sequence (Q96QZ7 456-580): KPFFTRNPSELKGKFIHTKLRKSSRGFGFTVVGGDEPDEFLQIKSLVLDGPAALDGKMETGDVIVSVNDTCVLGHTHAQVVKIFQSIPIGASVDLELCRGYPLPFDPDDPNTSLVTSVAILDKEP

MAGI2_4, Q86UL8 = target: MAGI2_4, Q86UL8
MAGI2_4, Q86UL8, sequence (Q86UL8 772-865): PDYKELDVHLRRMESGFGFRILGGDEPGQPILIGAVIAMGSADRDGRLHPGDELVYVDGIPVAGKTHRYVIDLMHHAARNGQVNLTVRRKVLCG

MAGI3_2, Q5TCQ9 = target: MAGI3_2, Q5TCQ9
MAGI3_2, Q5TCQ9, sequence (Q5TCQ9 398-503): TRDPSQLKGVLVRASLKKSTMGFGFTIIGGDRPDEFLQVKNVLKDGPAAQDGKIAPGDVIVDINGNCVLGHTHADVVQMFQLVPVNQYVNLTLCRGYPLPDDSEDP

MPDZ_10, O75970 = target: T4, MPDZ_10, O75970
T4 sequence (O75970 1624-1722, limits assumed, looked up): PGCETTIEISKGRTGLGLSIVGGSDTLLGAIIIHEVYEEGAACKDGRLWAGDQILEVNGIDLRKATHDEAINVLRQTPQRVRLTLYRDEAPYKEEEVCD

MPP7, Q5T2T1 = target: T5, MPP7, Q5T2T1
T5 sequence (Q5T2T1 134-230, limits assumed, looked up): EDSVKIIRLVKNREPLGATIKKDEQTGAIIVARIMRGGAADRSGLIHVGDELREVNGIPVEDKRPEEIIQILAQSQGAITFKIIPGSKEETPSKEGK

PDLIM1, O00151 = target: PDLIM1, O00151
PDLIM1, O00151, sequence (O00151 1-87): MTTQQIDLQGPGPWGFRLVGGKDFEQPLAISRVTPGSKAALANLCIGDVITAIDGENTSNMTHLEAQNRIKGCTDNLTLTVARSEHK

RHPN1, Q8TCX5 = target: T6, RHPN1, Q8TCX5
T6 sequence (Q8TCX5 508-602, limits assumed, looked up): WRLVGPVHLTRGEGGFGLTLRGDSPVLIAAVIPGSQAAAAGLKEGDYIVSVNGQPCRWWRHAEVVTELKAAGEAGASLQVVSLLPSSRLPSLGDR

SIPA1L2, Q9P2F8 = target: T7, SIPA1L2, Q9P2F8
T7 sequence (Q9P2F8 945-1036, limits assumed, looked up): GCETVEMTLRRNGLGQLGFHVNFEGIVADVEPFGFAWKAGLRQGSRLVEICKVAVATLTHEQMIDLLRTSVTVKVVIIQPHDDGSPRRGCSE

SNTG1, Q9NSN8 = target: T8, SNTG1, Q9NSN8
T8 sequence (Q9NSN8 52-150, limits assumed, looked up): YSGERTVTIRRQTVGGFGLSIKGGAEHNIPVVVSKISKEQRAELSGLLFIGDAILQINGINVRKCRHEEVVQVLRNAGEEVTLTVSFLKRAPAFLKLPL

SNX27, Q96L92 = target: SNX27, Q96L92
SYNJ2BP, P57105 = target: T9, SYNJ2BP, P57105
T9 sequence (P57105 8-110, limits assumed, looked up): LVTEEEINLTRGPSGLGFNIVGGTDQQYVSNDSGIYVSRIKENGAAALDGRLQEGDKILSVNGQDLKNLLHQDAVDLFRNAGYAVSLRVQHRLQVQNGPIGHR

[1] = plain residues with an end cap or a label only (N-terminal biotin on a linker: gsgsgs; C-terminal amide)
[2] = plain residues with an end cap or a label only (N-terminal biotin on a linker: ttds)

pKd (APBA2_2, Q99767; [1]): below the threshold
pKd (ARHGEF12, Q9NZN5-2; [1]): below the threshold
pKd (DLG1_2, Q12959; [1]): below the threshold
pKd (DLG1_3, Q12959; [1]): below the threshold
pKd (DLG4_1, P78352; [1]): below the threshold
pKd (DLG4_2, P78352; [1]): below the threshold
pKd (FRMPD2_1, Q68DX3; [1]): below the threshold
pKd (GOPC, Q9HD26; [1]): below the threshold
pKd (GORASP1, Q9BQQ3; [1]): below the threshold
pKd (GRASP, Q7Z6J2; [1]): below the threshold
pKd (GRID2IP_1, A4D2P6; [1]): below the threshold
pKd (GRIP1_5, Q9Y3R0; [1]): below the threshold
pKd (GRIP2_4, Q9C0E4; [1]): below the threshold
pKd (GRIP2_6, Q9C0E4; [1]): below the threshold
pKd (HTRA1, Q92743; [1]): below the threshold
pKd (HTRA2, O43464; [1]): below the threshold
pKd (LAP2, Q96RT1; [1]): below the threshold
pKd (LIN7B, Q9HAP6; [1]): 3.72
pKd (MAGI1_2, Q96QZ7; [1]): below the threshold
pKd (MAGI2_4, Q86UL8; [1]): below the threshold
pKd (MAGI3_2, Q5TCQ9; [1]): below the threshold
pKd (MPDZ_10, O75970; [1]): below the threshold
pKd (MPP7, Q5T2T1; [1]): below the threshold
pKd (PDLIM1, O00151; [1]): below the threshold
pKd (RHPN1, Q8TCX5; [1]): below the threshold
pKd (SIPA1L2, Q9P2F8; [1]): below the threshold
pKd (SNTG1, Q9NSN8; [1]): below the threshold
pKd (SNX27, Q96L92; [1]): below the threshold
pKd (SYNJ2BP, P57105; [1]): 4.52
B1: AXIN1_int, O15169 (peptide)
chain: TLSLTDSSVDGIPPYR

pKd (APBA2_2, Q99767; [2]): below the threshold
pKd (ARHGEF12, Q9NZN5-2; [2]): 4.1
pKd (DLG1_2, Q12959; [2]): below the threshold
pKd (DLG1_3, Q12959; [2]): below the threshold
pKd (DLG4_1, P78352; [2]): below the threshold
pKd (DLG4_2, P78352; [2]): below the threshold
pKd (FRMPD2_1, Q68DX3; [2]): below the threshold
pKd (GOPC, Q9HD26; [2]): 4.21
pKd (GORASP1, Q9BQQ3; [2]): below the threshold
pKd (GRASP, Q7Z6J2; [2]): 4.2
pKd (GRID2IP_1, A4D2P6; [2]): below the threshold
pKd (GRIP1_5, Q9Y3R0; [2]): below the threshold
pKd (GRIP2_4, Q9C0E4; [2]): below the threshold
pKd (GRIP2_6, Q9C0E4; [2]): below the threshold
pKd (HTRA1, Q92743; [2]): 3.63
pKd (HTRA2, O43464; [2]): below the threshold
pKd (LAP2, Q96RT1; [2]): below the threshold
pKd (LIN7B, Q9HAP6; [2]): below the threshold
pKd (MAGI1_2, Q96QZ7; [2]): below the threshold
pKd (MAGI2_4, Q86UL8; [2]): below the threshold
pKd (MAGI3_2, Q5TCQ9; [2]): below the threshold
pKd (MPDZ_10, O75970; [2]): below the threshold
pKd (MPP7, Q5T2T1; [2]): below the threshold
pKd (PDLIM1, O00151; [2]): below the threshold
pKd (RHPN1, Q8TCX5; [2]): 4.42
pKd (SIPA1L2, Q9P2F8; [2]): below the threshold
pKd (SNTG1, Q9NSN8; [2]): below the threshold
pKd (SNX27, Q96L92; [2]): 5.41
pKd (SYNJ2BP, P57105; [2]): below the threshold
B2: DLGAP4, Q9Y2H0 (peptide)
chain: IYVPEAQTRL
